Data: paper PMC4431665
Blank lines part the entries; values can stand above or below the substance they belong to.

Tests used:
[1] = molecular target: Hsp70 E. coli T504E phosphomimic variant (human) (UniProt P0DMV8); test: native MS; labeled wild-type Hsp70 E. coli and the T504E variant examined in a 1:1 ratio (Figure S1C)
[2] = molecular target: Hsp70 E. coli V438F/T504E substrate-binding-deficient variant (human) (UniProt P0DMV8); test: not stated; dimerization of the V438F/T504E mutant (Figure S4B); method not given
Hsp70 = test: comparative BS3 cross-linking with LC-MS/MS; details: reference: Hsp70 expressed in E. coli; sites T504
[3] = molecular target: Hsp70 expressed in E. coli (Hsp70 E. coli) (human) (UniProt P0DMV8); test: native MS; 1:1 mixture of 13C-labeled Hsp70 E. coli and Hsp70Sf9 at 8 μM; parameters designed to preserve non-covalent interactions
[4] = molecular target: Hsp70 expressed in E. coli (Hsp70 E. coli) (human) (UniProt P0DMV8); test: native MS; 1:1 ratio of 13C-labeled Hsp70 E. coli and Hsp70Sf9 with catalytic amounts of Hsp40 and ATP
[5] = molecular target: Hsp70 expressed in E. coli (Hsp70 E. coli) (human) (UniProt P0DMV8); test: native MS; Hsp70 E. coli at a higher concentration under which dimerization occurs, with phosphatase, 48 hr (Figures S1A and S1B)
[6] = molecular target: Hsp90_(2)Hop complex (human) (UniProt P07900); test: native MS; Hsp90 and Hop with either Hsp70 E. coli or Hsp70Sf9, in the absence of Hsp40
[7] = molecular target: Hsp70 expressed in Sf9 insect cells (Hsp70Sf9) (human) (UniProt P0DMV8); test: native MS; 2 μM Hsp70Sf9, 0.5 μM Hsp40, 200 μM ATP/Mg2+, binding buffer with 50, 100 or 300 mM KCl, 1 hr at room temperature; buffer exchanged to 100 mM AmAc
[8] = molecular target: Hsp70 expressed in Sf9 insect cells (Hsp70Sf9) (human) (UniProt P0DMV8); test: native MS; 1:1 mixture of 13C-labeled Hsp70 E. coli and Hsp70Sf9 at 8 μM; parameters designed to preserve non-covalent interactions
[9] = molecular target: Hsp70 expressed in Sf9 insect cells (Hsp70Sf9) (human) (UniProt P0DMV8); test: native MS; 1:1 ratio of 13C-labeled Hsp70 E. coli and Hsp70Sf9 with catalytic amounts of Hsp40 and ATP
[10] = molecular target: Hsp70 expressed in Sf9 insect cells (Hsp70Sf9) (human) (UniProt P0DMV8); test: cross-linking; BS3 on Hsp70Sf9 in excess ATP (also ADP, ATPγS); SDS-PAGE, monomer and dimer bands digested with trypsin, LC-MS/MS
[11] = molecular target: Hsp70 expressed in Sf9 insect cells (Hsp70Sf9) (human) (UniProt P0DMV8); test: native MS; 1:1 mixture of 3 μM 13C-labeled Hsp70 E. coli and Hsp70Sf9, incubated without phosphatase in 100 mM AmAc pH 7.5 at 4°C for 16 hr; high backing pressure
Hsp90 (human) [12] = molecular target: Hsp90 (human) (UniProt P07900); test: native MS; Hsp90 and Hop with either Hsp70 E. coli or Hsp70Sf9, in the absence of Hsp40
Hsp90 (human) [13] = molecular target: Hsp90 (human) (UniProt P07900); test: native MS; Hsp70GR complex formed with catalytic Hsp40 (0.3 μM) and ATP, then incubated with Hsp90_(2)Hop; Hsp90, Hop, Hsp70 and GR equimolar (1 μM each), or two Hsp70 per Hsp90_(2)
Hsp90 (human) [14] = molecular target: Hsp90 (human) (UniProt P07900); test: native MS; stoichiometric amounts of p23 added to the client-loading complex Hsp90_(2)Hsp70_(2)HopGR
Yeast Hsp40 (yeast) = Yeast Hsp40 (yeast) (UniProt P25491); test: native MS; Hsp40 alone, 100 mM ammonium acetate pH 7.5 (Figure S5C)

Substance: Hsp70 Hsp70 expressed in Sf9 cells
other: K569-K108 cross-link intensity ratio (Hsp70): stronger; reference 1.0

Substance: Hsp70 expressed in E. coli (Hsp70 E. coli) (from UniProt P0DMV8 1-641) (natural protein)
stoichiometry N [3]: 2 | stoichiometry N [4]: 2 | stoichiometry N [5]: 2

Substance: Yeast Hsp40 (from UniProt P25491 1-409) (natural protein)
stoichiometry N (Yeast Hsp40 (yeast)): 2

Further lines, results first:

stoichiometry N [1]: 2
Substance: Hsp70 E. coli T504E phosphomimic variant (from UniProt P0DMV8 1-641) (natural protein)

stoichiometry N [2]: 2
Substance: Hsp70 E. coli V438F/T504E substrate-binding-deficient variant (from UniProt P0DMV8 1-641) (natural protein)

stoichiometry N [6]: 2 | stoichiometry N [7]: 2 | stoichiometry N [8]: 2 | stoichiometry N [9]: 2 | stoichiometry N [10]: 2 | stoichiometry N [11]: 2
Substance: Hsp70 expressed in Sf9 insect cells (Hsp70Sf9) (from UniProt P0DMV8 1-641) (natural protein)

stoichiometry N (Hsp90 (human) [12]): 2 | stoichiometry N (Hsp90 (human) [13]): 2 | stoichiometry N (Hsp90 (human) [14]): 2
Substance: Hsp90 (from UniProt P07900 1-732) (natural protein)
